This assay deals with T1, recombinant human MCAM/Fc chimera (Sino Biological 10115-H02H) (human, UniProt P43121 24-559).
T1 construct: melanoma cell adhesion molecule (MCAM), human, part fused to Fc; IgG1 Fc served as the control chimera; source: bought: Sino Biological Inc
T1 sequence (looked up): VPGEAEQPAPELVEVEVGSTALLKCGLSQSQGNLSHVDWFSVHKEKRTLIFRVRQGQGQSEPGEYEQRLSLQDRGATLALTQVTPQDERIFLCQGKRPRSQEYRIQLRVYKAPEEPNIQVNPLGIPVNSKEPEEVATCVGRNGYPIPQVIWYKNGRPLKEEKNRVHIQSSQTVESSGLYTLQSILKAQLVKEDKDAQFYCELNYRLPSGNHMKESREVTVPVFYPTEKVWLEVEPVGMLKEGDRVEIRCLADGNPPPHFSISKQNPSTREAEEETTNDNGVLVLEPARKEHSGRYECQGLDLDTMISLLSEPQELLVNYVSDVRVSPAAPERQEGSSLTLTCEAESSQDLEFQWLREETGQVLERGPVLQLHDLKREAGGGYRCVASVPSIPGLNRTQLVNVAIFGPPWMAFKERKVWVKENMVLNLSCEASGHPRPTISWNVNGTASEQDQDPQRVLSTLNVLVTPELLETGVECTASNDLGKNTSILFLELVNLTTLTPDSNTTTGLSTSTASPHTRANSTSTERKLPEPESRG
As to the kind of experiment: SPR; Biacore T100, CM5 chip, room temperature, 1x PBS with 0.05% Tween 20; MCAM/Fc, FGFR1/Fc, FGFR2/Fc or IgG1 Fc immobilised by amine coupling, soluble FGF2, FGF4 or FGF8 flowed over; 1:1 binding model. To be noted: both partners purified.

B1: recombinant FGF4 (Peprotech AF-100-31) (ligand, UniProt P08620 31-206, looked up)
chain: APTAPNGTLEAELERRWESLVALSLARLPVAAQPKEAAVQSGAGDYLLGIKRLRRLYCNVGIGFHLQALPDGRIGGAHADTRDSLLELSPVERGVVSIFGVASRFFVAMSSKGKLYGSPFFTDECTFKEILLPNNYNAYESYKYPGMFIALSKNGKTKKGNRVSPTMKVTHFLPRL
notes: fibroblast growth factor 4, recombinant, soluble; also called soluble FGF4; source: bought: Peprotech
For orientation: Kd means the constant that tells how readily two partners part at equilibrium. B1: the Kd was 0.97 nM.

(Values after publication PMC5467231, “The signalling receptor MCAM coordinates apical-basal polarity and planar cell polarity during morphogenesis” (Nature Communications, 2017).)
